Target: Arabidopsis thaliana (At) OBE1_(193-372), PHD superdomain of OBERON 1 (A. thaliana) (UniProt Q9S736)
Experiment: ITC; 25 °C, iTC 200; 25 mM Tris pH 8, 150 mM NaCl, 1 mM DTT; 19 injections of 2 μl of 0.25 to 1 mM peptide into 50 μM protein

- Kd: 1900 nM
Substance: H3K4me2 (1–15) histone H3 tail peptide (from UniProt P68431 2-16)

Source: PMC9640981, “Plant vernalization proteins contain unusual PHD superdomains without histone H3 binding activity” (The Journal of Biological Chemistry, 2022)
